The data set concerns the target TATA binding protein (TBP) (UniProt P20226 P20226:1-339). Nature of the data set: square wave voltammetry; nM detection in buffer and in 250 ug/mL HeLa nuclear extract. Conditions: tags: recombinantly expressed and purified (Bonham 2009); label: 5'-C6-thiol (gold electrode), internal methylene blue; double stem-loop / single stem-loop switch containing TBP recognition duplex. As to the method: The ability of the TBP transcription factor electrochemical probe to function in HeLa nuclear cell extract was also tested (FIG. 14(b). The probe directed against TBP was titrated with its target protein against a background of 250 μg/mL crude HeLa nuclear extract (FIG. 14(b), producing a binding curve similar to that observed in buffer (FIG. 14(b). This binding curve was slightly offset from the curve obtained in buffer. Without being limited to any particular theory, a possible explanation for this shift was that this was a contribution from the endogenous TBP present in cell extract. The TBP transcription factor electrochemical probe provided the convenient quantification of transcription factors in cell extract. The sensor's response in buffer, cell extract and, finally, extract to which a large excess of TBP had been added were measured. These measurements were used to calculate the concentration of TF in the sample, C, via the following relationship: […]

TATA binding protein (TBP), sequence (P20226 whole entry, one chain of several): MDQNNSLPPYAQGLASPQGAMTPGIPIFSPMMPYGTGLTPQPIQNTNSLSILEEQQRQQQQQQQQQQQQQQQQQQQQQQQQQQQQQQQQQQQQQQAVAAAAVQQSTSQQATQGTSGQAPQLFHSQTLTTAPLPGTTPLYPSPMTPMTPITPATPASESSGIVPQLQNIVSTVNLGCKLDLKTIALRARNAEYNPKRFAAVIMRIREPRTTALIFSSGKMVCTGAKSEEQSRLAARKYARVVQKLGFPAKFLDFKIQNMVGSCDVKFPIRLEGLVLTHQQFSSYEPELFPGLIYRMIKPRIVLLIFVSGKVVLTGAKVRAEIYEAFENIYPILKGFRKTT

Regarding GAATAGGTTCCTATAAAAGGTTGGTTTTATAAACCTATCCTATTC (structured_DNA) [TBP electrochemical probe], the binding result is on record as “binds”.

The values above are taken from patent US20130288923, “Nucleotide-Based Probes and Methods for the Detection and Quantification of Macromolecules and Other Analytes” (THE REGENTS OF THE UNIVERSITY OF CALIFORNIA, published 2013).
